{"source": "paper PMC12809078", "target": "full-length SUMO-CtBP2 (human) (UniProt P56545)", "test": "SEC; Superose 6 Increase 10/300 GL; 20 mM Tris-HCl pH 8.0, 150 mM NaCl, 2 mM DTT; 0.35 ml/min", "data": [{"substance": "full-length SUMO-CtBP2, P56545 1-445 (natural protein; other documents disagree on this pair)", "values": [{"measurement": "stoichiometry N", "result": 4}]}]}
